B1: SlACS4 wild (dsDNA)
DNA 1: GTTTTAACTTTTTAAATATTTTGACGTAAGTTTTTTGTTTTCCCCCAAAA
DNA 2: TTTTGGGGGAAAACAAAAAACTTACGTCAAAATATTTAAAAAGTTAAAAC
B2: SlGgpps2 wild (dsDNA)
DNA 1: TACGTTTAGGATAGGACTTCATTACGTGTCAAGGACAAAAATAAACCTAT
DNA 2: ATAGGTTTATTTTTGTCCTTGACACGTAATGAAGTCCTATCCTAAACGTA
B3: SlEXP1 wild (dsDNA)
DNA 1: CTGAAATTTTAGCTAATTTTAACACGTATTCAATTTTGTATGATTGAATG
DNA 2: CATTCAATCATACAAAATTGAATACGTGTTAAAATTAGCTAAAATTTCAG
B4: SlSGR1 wild (dsDNA)
DNA 1: TAAGCAGTTATGCGTGTGCTGAAGTTGTTATTTCAAACGTGAAAAGGAAA
DNA 2: TTTCCTTTTCACGTTTGAAATAACAACTTCAGCACACGCATAACTGCTTA
B5: SlPG2a wild (dsDNA)
DNA 1: TATTTTAAAAAATACACTTAAAAGCGTGACTAAATATAAATTGTTGCTCA
DNA 2: TGAGCAACAATTTATATTTAGTCACGCTTTTAAGTGTATTTTTTAAAATA
B6: SlACS2 wild (dsDNA)
DNA 1: AATAAATTCTTTTTGACAGGGTGGCGTAAAAATAATTTTATTTTAAAATA
DNA 2: TATTTTAAAATAAAATTATTTTTACGCCACCCTGTCAAAAAGAATTTATT
B7: SlPL wild (dsDNA)
DNA 1: TATCAATAACAGATAGTAATTTTACGTAATGATATTGAACGATGTATATA
DNA 2: TATATACATCGTTCAATATCATTACGTAAAATTACTATCTGTTATTGATA
B8: SlCEL2 wild (dsDNA)
DNA 1: ATCCAATAGCATCCCACCACGTGTCGTAACAATATTGGTTTAACCCCAGG
DNA 2: CCTGGGGTTAAACCAATATTGTTACGACACGTGGTGGGATGCTATTGGAT

molecular target: NOR-like1 (Solanum lycopersicum (cv. AC), UniProt K4CH25 1-329); assay: EMSA; EMSA kit (Thermo Fisher), manufacturer's instructions; buffer, salt, pH and temperature not stated; settings: protein: recombinant; tags: GST; chain copies: 2; label: biotin; blunt
Sequence (K4CH25 entry or part of it): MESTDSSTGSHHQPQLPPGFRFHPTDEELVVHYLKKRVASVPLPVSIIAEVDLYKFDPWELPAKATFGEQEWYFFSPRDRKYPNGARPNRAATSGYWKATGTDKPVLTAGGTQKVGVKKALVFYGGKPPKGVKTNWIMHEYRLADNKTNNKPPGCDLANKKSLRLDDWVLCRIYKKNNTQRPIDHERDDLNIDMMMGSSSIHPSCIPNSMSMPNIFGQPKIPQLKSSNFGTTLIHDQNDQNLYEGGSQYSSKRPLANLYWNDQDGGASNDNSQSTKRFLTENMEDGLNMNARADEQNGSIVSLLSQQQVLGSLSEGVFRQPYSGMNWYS

| Binder | binding result |
| --- | --- |
| B1 | binds |
| B2 | binds |
| B3 | binds |
| B4 | binds |
| B5 | binds |
| B6 | binds |
| B7 | binds |
| B8 | binds |

Source: paper PMC6303401, “A NAC transcription factor, NOR-like1, is a new positive regulator of tomato fruit ripening”
